Tested on: luciferase position 361 and sfGFP amber suppression
Assay: Amber suppression assays using several different reporters (luciferase and sfGFP)
Type: cell-based, E. coli
Settings: BocK; IPYE variant vs parent enzyme; FIGS. 9B-9D
Protocol: S1030 cells (25 μL) were electroporated with the appropriate plasmid(s) and recovered in SOC media (New England Biolabs) for 1 h while shaking at 37° C. Transformed cells were plated and grown overnight at 37° C. on LB agar containing the antibiotics required for plasmid maintenance. Single colonies were used to inoculate 2-3 mL of DRM containing antibiotics and were grown overnight at 37° C. while shaking at 230 rpm. The saturated overnight cultures were diluted 100-fold in a 96-well deep well plate using 1 mL of DRM containing the required antibiotic and supplemented with 1 mM ncAA where denoted. […] The plate continued to incubate with shaking at 37° C. for an additional 2-3 h until maximum luminescence signal was observed. Each luminescence measurement was taken on 150 μL of each culture, which had been transferred to a 96-well black wall, clear bottom plate (Costar). The A600 and luminescence measurements from each well were taken using an Infinite M1000 Pro microplate reader (Tecan). […] The raw luminescence value from each well was divided by the background-subtracted A600 value of the corresponding well to provide the luminescence value normalized to cell density. […]

Row | Molecule | activity in amber suppression assays using several different reporters
1 | MmPylRS(IPYE): M. mazei PylRS with transplanted PACE mutations V31I, T56P, H62Y, A100E (protein, UniProt Q8PWY1 1-454, looked up, variant V31I T56P H62Y A100E) Pyrrolysine--tRNA ligase: MDKKPLNTLISATGLWMSRTGTIHKIKHHEISRSKIYIEMACGDHLVVNNSRSSRPARALRYHKYRKTCKRCRVSDEDLNKFLTKANEDQTSVKVKVVSEPTRTKKAMPKSVARAPKPLENTEAAQAQPSGSKFSPAIPVSTQESVSVPASVSTSISSISTGATASALVKGNTNPITSMSAPVQASAPALTKSQTDRLEVLLNPKDEISLNSGKPFRELESELLSRRKKDLQQIYAEERENYLGKLEREITRFFVDRGFLEIKSPILIPLEYIERMGIDNDTELSKQIFRVDKNFCLRPMLAPNLYNYLRKLDRALPDPIKIFEIGPCYRKESDGKEHLEEFTMLNFCQMGSGCTRENLESIITDFLNHLGIDFKIVGDSCMVYGDTLDVMHGDLELSSAVVGPIPLDREWGIDKPWIGAGFGLERLLKVKHDFKNIKRAARSESYYNGISTNL | improved, albeit more modestly
2 | MbPylRS(IPYE): M. barkeri PylRS with transplanted PACE mutations V31I, T56P, H62Y, A100E (protein, UniProt Q6WRH6 1-419, looked up, variant V31I T56P H62Y A100E) Pyrrolysine--tRNA ligase: MDKKPLDVLISATGLWMSRTGTLHKIKHHEISRSKIYIEMACGDHLVVNNSRSCRPARAFRYHKYRKTCKRCRVSDEDINNFLTRSTESKNSVKVRVVSEPKVKKAMPKSVSRAPKPLENSVSAKASTNTSRSVPSPAKSTPNSSVPASAPAPSLTRSQLDRVEALLSPEDKISLNMAKPFRELEPELVTRRKNDFQRLYTNDREDYLGKLERDITKFFVDRGFLEIKSPILIPAEYVERMGINNDTELSKQIFRVDKNLCLRPMLAPTLYNYLRKLDRILPGPIKIFEVGPCYRKESDGKEHLEEFTMVNFCQMGSGCTRENLEALIKEFLDYLEIDFEIVGDSCMVYGDTLDIMHGDLELSSAVVGPVSLDREWGIDKPWIGAGFGLERLLKVMHGFKNIKRASRSESYYNGISTNL | dramatically enhanced
